From the supplement of paper PMC7125110
This sample holds only a part of the variants without activity.

B1: glmS ribozyme (parent)
chain: AUAAAAGCGCCAGAACUACAGAAAUGUAGUUGACGAGGAGGAGGUUUAUCGAAUUUUCGGCGGAUGCCUCCAAA

Assays:
Conditions in all cases: with glucosamine-6-phosphate
glucosamine-6-phosphate [1] = variants of: B1; test: self-cleavage kobs at 640 uM GlcN6P; higher = faster cleavage; RNA array
How it was run: (§1)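 Tiles bearing barcoded ribozyme variants, transcribed in situ by E. coli RNA polymerase on sequenced MiSeq chips, were imaged over ~14 h at 37 °C using a hybridised Cy3 probe. Glucosamine-6-phosphate was supplied at 40 μM to 10 mM in HEPES/KCl/Mg(OAc)2 buffer. kobs came from one- or two-exponential decay fits to normalised per-tile medians, and weighted Michaelis–Menten fits then provided kcat and KM.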

glucosamine-6-phosphate [2] = variants of: B1; test: self-cleavage kobs at 2500 uM GlcN6P; higher = faster cleavage; RNA array
How it was run: as §1

glucosamine-6-phosphate [3] = variants of: B1; test: self-cleavage kobs at 10000 uM GlcN6P; higher = faster cleavage; RNA array
How it was run: as §1

In the case of AUAAAGGCGCCAGAACUACAGAAAUGUAGUUGACGAGGAAGAGGUUUAUCGAAGUUUCGGCGGAUGACUCCAAA [A6G G40A U54G C67A], the “self-cleavage kobs at 640 uM GlcN6P” value (glucosamine-6-phosphate [1]) is reported as less than 1e-05 s⁻¹ and the “self-cleavage kobs at 2500 uM GlcN6P” value (glucosamine-6-phosphate [2]) is reported as less than 1e-05 s⁻¹.

AUAAAGGCGCUAGAACUACAGAAAUGUAGUUGACGAGGAGGAGGUUUAUCGAAUUUUCGACGGAUGCCUCUAAA [A6G C11U G60A C71U] was tested, and the “self-cleavage kobs at 640 uM GlcN6P” value (glucosamine-6-phosphate [1]) was less than 1e-05 s⁻¹ and the “self-cleavage kobs at 2500 uM GlcN6P” value (glucosamine-6-phosphate [2]) was less than 1e-05 s⁻¹.

With AUAAAGGCGCCAGAACUACAGAAAUGUAGUGGACGAGGAGGAGGAUUAUCGAGUUUUCGGAGGAUCCCUCCAAA [A6G U31G U45A A53G C61A G66C] the “self-cleavage kobs at 640 uM GlcN6P” value (glucosamine-6-phosphate [1]) was less than 1e-05 s⁻¹.

For AUAAACGCGCCAGAACUACAGAAAUGUAGUUGACGAGGAGGAGAUUUAUCUAAUUUUCGGCGGAUGCCUCCAAA [A6C G44A G51U], the “self-cleavage kobs at 640 uM GlcN6P” value (glucosamine-6-phosphate [1]) was less than 1e-05 s⁻¹ and the “self-cleavage kobs at 2500 uM GlcN6P” value (glucosamine-6-phosphate [2]) was less than 1e-05 s⁻¹.

With AUAAAGGCGCCAGAACUACAGAAAUGUAGUUGACGAGGAGGAGGUUUAUGGUAUUUUCUGCGGAUGCCUCCAAA [A6G C50G A52U G59U] the “self-cleavage kobs at 640 uM GlcN6P” value (glucosamine-6-phosphate [1]) was less than 1e-05 s⁻¹.

AUAAACGCUCCAGAACUACAGAAAUGUAGUUGACGAGGAGGAGGUUUAUCGGAUUUUCGGCGGAUGCCUCCAAA [A6C G9U A52G] was tested, and the “self-cleavage kobs at 640 uM GlcN6P” value (glucosamine-6-phosphate [1]) was less than 1e-05 s⁻¹ and the “self-cleavage kobs at 10000 uM GlcN6P” value (glucosamine-6-phosphate [3]) was less than 1e-05 s⁻¹.

AUAAAGGCACCAGAACUACAGAAAUGUAGUUGCCGAGGUGUAGGUUUAUCGAUUUUUCGGCGGAUGCCUCCAAA [A6G G9A A33C A39U G41U A53U] was tested, and the “self-cleavage kobs at 640 uM GlcN6P” value (glucosamine-6-phosphate [1]) was less than 1e-05 s⁻¹.

For AUAAAGGCGCCCGAACUACAGAAAUGUAGUUGACGAGGAGGACGUUUAUCGAAUUUUCGGCGGAUGCCUCCAAA [A6G A12C G43C], the “self-cleavage kobs at 640 uM GlcN6P” value (glucosamine-6-phosphate [1]) was less than 1e-05 s⁻¹ and the “self-cleavage kobs at 2500 uM GlcN6P” value (glucosamine-6-phosphate [2]) was less than 1e-05 s⁻¹.

For AUAAAGGCGCCAGAACUACAGAAAUGUAGUUGACGAGGAGGAGGUUUAUGAAAUUUUCGGCGGAUGCCUCCAAA [A6G C50G G51A], the “self-cleavage kobs at 640 uM GlcN6P” value (glucosamine-6-phosphate [1]) was less than 1e-05 s⁻¹ and the “self-cleavage kobs at 2500 uM GlcN6P” value (glucosamine-6-phosphate [2]) was less than 1e-05 s⁻¹.

In the case of AUAAACGCGCCAGAACUACAGAAAUGUAGUGGACGAGGAUGAAGUUUAUGGAAUUUUCGCCGGAUGCCUCCAAA [A6C U31G G40U G43A C50G G60C], the “self-cleavage kobs at 640 uM GlcN6P” value (glucosamine-6-phosphate [1]) is reported as less than 1e-05 s⁻¹ and the “self-cleavage kobs at 10000 uM GlcN6P” value (glucosamine-6-phosphate [3]) is reported as less than 1e-05 s⁻¹.

AUAAAGGCGCCAGAACUACAGAAAUGUAGUUGACGAGGAGGCGGUUUAUCGUAUUUUCGGCGGAUGCAUCCAAA [A6G A42C A52U C68A] was tested, and the “self-cleavage kobs at 640 uM GlcN6P” value (glucosamine-6-phosphate [1]) was less than 1e-05 s⁻¹ and the “self-cleavage kobs at 2500 uM GlcN6P” value (glucosamine-6-phosphate [2]) was less than 1e-05 s⁻¹.

AUAAACGCGCCAGAACUACAGAAAUGUAGUUGACGAUGAGGAGGUUUAACGAAUUUUCGGCGGAUGCCUCCAAA [A6C G37U U49A] was tested, and the “self-cleavage kobs at 640 uM GlcN6P” value (glucosamine-6-phosphate [1]) was less than 1e-05 s⁻¹ and the “self-cleavage kobs at 10000 uM GlcN6P” value (glucosamine-6-phosphate [3]) was less than 1e-05 s⁻¹.

In the case of AUAAAGGCGCCAGAACUACAGAAAUGUAGUUGACGAGGAGGAGGUUUAACGAAUUUUCGGCGGAUGCCUCCAAA [A6G U49A], the “self-cleavage kobs at 640 uM GlcN6P” value (glucosamine-6-phosphate [1]) is reported as less than 1e-05 s⁻¹ and the “self-cleavage kobs at 10000 uM GlcN6P” value (glucosamine-6-phosphate [3]) is reported as less than 1e-05 s⁻¹.

AUAAAGGCGCCAGAAAUACAGAAAUGUAGUUGACGAGGAGGAGUAUUAUCGAAUUUUCGGCGGAUGCCUCCAAA [A6G C16A G44U U45A] was tested, and the “self-cleavage kobs at 640 uM GlcN6P” value (glucosamine-6-phosphate [1]) was less than 1e-05 s⁻¹ and the “self-cleavage kobs at 2500 uM GlcN6P” value (glucosamine-6-phosphate [2]) was less than 1e-05 s⁻¹.

AUAAAGGCGCCAGAACUACAGAAAUGUAGUUGACGAGGAGGCGGUUUAUCGAAUUAUCGGGGGAUGCCUCCAAA [A6G A42C U56A C61G] was tested, and the “self-cleavage kobs at 640 uM GlcN6P” value (glucosamine-6-phosphate [1]) was less than 1e-05 s⁻¹.

With AUAAAGGCUCCAGAACUACAGAAAUGUAGUUGACGAGGAGGAGGUUUAUCGAAUUUUCGGCGGGUGCCUCCAAA [A6G G9U A64G] the “self-cleavage kobs at 640 uM GlcN6P” value (glucosamine-6-phosphate [1]) was less than 1e-05 s⁻¹.

AUAAAGGCACCAGAACUACAGAAAUGUAGUUGACGAGGCGGUGGUAUAUCGAUUUUUCGGCGGAUGCUUCGAAA [A6G G9A A39C A42U U46A A53U C68U C71G] was tested, and the “self-cleavage kobs at 640 uM GlcN6P” value (glucosamine-6-phosphate [1]) was less than 1e-05 s⁻¹.

For AUAAAGGCGCCAGAACUACAGAAAUGUAGAUGACGAGGUGGAGGUUUAUCGAAUUUUCGUCGGAUGCCUCCAAA [A6G U30A A39U G60U], the “self-cleavage kobs at 640 uM GlcN6P” value (glucosamine-6-phosphate [1]) was less than 1e-05 s⁻¹ and the “self-cleavage kobs at 2500 uM GlcN6P” value (glucosamine-6-phosphate [2]) was less than 1e-05 s⁻¹.

AUAAAGGCGCCAGAAAUACAGAAAUGUAGUUGACGAGGAGGAGGUUUAUCGCAUUUUCGGCGGAUGCCUCCAAA [A6G C16A A52C] was tested, and the “self-cleavage kobs at 640 uM GlcN6P” value (glucosamine-6-phosphate [1]) was less than 1e-05 s⁻¹ and the “self-cleavage kobs at 2500 uM GlcN6P” value (glucosamine-6-phosphate [2]) was less than 1e-05 s⁻¹.

With AUAAAGGCGCCAGAACUACAGAAAUGUAGUCGACGAGGAGGAGGUUUAUCGAAUUUUCAGCGGAUGCCUCCAAA [A6G U31C G59A] the “self-cleavage kobs at 640 uM GlcN6P” value (glucosamine-6-phosphate [1]) was less than 1e-05 s⁻¹.

With AUAAAGGCGCCAGAACUACAGAAAUGUAGUUGACGAGGAGCCGGUUUAUCGAAUUUUCGGCGGAUGCCUCCAAA [A6G G41C A42C] the “self-cleavage kobs at 640 uM GlcN6P” value (glucosamine-6-phosphate [1]) was less than 1e-05 s⁻¹ and the “self-cleavage kobs at 2500 uM GlcN6P” value (glucosamine-6-phosphate [2]) was less than 1e-05 s⁻¹.

In the case of AUAAAGACGCCAUACCUACAGAAAUGUAGUUGACGAGGAGGAGGUUUAUCGAAUUUUCGGCGGAUGCAUACAAA [A6G G7A G13U A15C C68A C70A], the “self-cleavage kobs at 640 uM GlcN6P” value (glucosamine-6-phosphate [1]) is reported as less than 1e-05 s⁻¹.

In the case of AUAAAGGCGCCAGAACUACAGAAAUGUAGUUGACGAGAAGGAGGUUUAUCGAAUUUUCGGCGGAUGCGUCCAAA [A6G G38A C68G], the “self-cleavage kobs at 640 uM GlcN6P” value (glucosamine-6-phosphate [1]) is reported as less than 1e-05 s⁻¹.
